Blank lines part the entries; values can stand above or below the molecule they belong to.
What was measured:
[1] = cited from earlier work
Method: In contrast, conversion took ~24 h in the absence of Cdc20^MIM‐111‐138 peptide (Fischer et al., [2022]) (Figures 2c and ...

Mad2^∆β7/β8 = conditions: ref Yang et al., [2008]; cited from earlier work
Description: We reasoned that MIM binding to Mad2 is blocked until the β7/β8 hairpin is displaced (Figure 3c,d). To test this hypothesis, we generated a Mad2 variant with a deleted β7/β8 hairpin (Mad2^∆β7/β8: residues 1–165) (Figure 3e). Mad2^∆β7/β8 adopted a stable globular fold, and due to the absence of the C‐terminal residues, it was unable to adopt a closed conformation (Figure 3f). […] This is in agreement with a previous study that showe ...

C‐Mad2 = conditions: phage-display selected MIM peptide; ref Luo et al., [2002]; cited from earlier work
O‐Mad2^R133A = molecular target: T1, O‐Mad2^R133A (Homo sapiens, UniProt Q13257, R133A); test: Time-resolved NMR: O-Mad2 to C-Mad2 conversion of O-Mad2^R133A with MIM peptides; type: biochemical; conditions: 100 μM O-Mad2^R133A, 25°C
T1 construct: unable to collect equivalent data for full‐length O‐Mad2^R133A; His6-DoubleStrep-TEV (N); made in house
Method: FIGURE 2 NMR fingerprinting of Mad2. (a) Structural orientations of Trp75 (on the αB helix) and Trp167 (on the “safety‐belt”) in Mad2 produce distinct indole NH resonances. […] NMR spectra for O‐Mad2^R133A and “empty” C‐Mad2^L13A/R133A and C‐Mad2^R133A:Cdc20^MIM‐111‐138 are from Fischer et al. ([2022]) (c) Mad2 conversion rates vary with different MIM peptides. Conversion was traced over 24 h at 25°C using the Trp75 and Trp167 side‐chain resonances as reporters. MIM peptides were added at two‐fold molar excess to Mad2 (100 μM). Each spectrum required 12 min of acquisition time, therefore the 15 min time‐points represent the earliest spectra in the time‐resolved series. The schematics show the conformation of Mad2 as indicated by the tryptophan side‐chain resonances. A black tick marks when conversion is considered complete. NMR data for O‐Mad2^R133A with and without Cdc20^MIM‐111‐138 shown are from Fischer et al. ([2022]). In the case of full‐length Cdc20, the MIM sequence is sequestered by an auto‐inhibitory intramolecular interaction within Cdc20 itself, which prevents it from being readily accessible for binding to C‐Mad2 (Piano et al., [2021]). Conversely, isolated MIM peptides lack this auto‐inhibitory mechanism, allowing them to bind directly to C‐Mad2 without obstruction.
To understand whether Mad2 conversion times are modulated by different C‐Mad2 ligands, we used time‐resolved NMR to determine the conversion time of 100 μM O‐Mad2^R133A at 25°C. The indole NH resonances of Trp75 and Trp167 were used as reporters (Figure 2b). […] In contrast, conversion took ~24 h in the absence of Cdc20^MIM‐111‐138 peptide (Fischer et al., [2022]) (Figures 2c and S4b). […] Other MIM peptides also accelerated the O‐Mad2 to C‐Mad2 conversion. […] In “empty” C‐Mad2, the β7/β8 hairpin is displaced to expose the β6 strand for pairing with the MIM peptide (Luo et al., [2004]) (Figure S3a).
Mad2 constructs were expressed in BL21 Star (DE3) cells (Thermo Fisher Scientific), co‐transformed with a pRARE plasmid (Merck). Uniformly labeled proteins were expressed in M9 minimal media (6 g/L Na2HPO4, 3 g/L KH2PO4, 0.5 g/L NaCl) supplemented with 1.7 g/L yeast nitrogen base without NH4Cl and amino acids (Sigma Y1251). 1 g/L ^15NH4Cl and 4 g/L glucose were supplemented for ^15N labeling. For ^13C/^15N double‐labeled samples, unlabeled glucose was replaced with 3 g/L ^13C‐glucose. Protein expression was induced with 0.4 mM IPTG at 16°C overnight. All samples were purified as previously described (Luo & Yu, [2005]; Mapelli et al., [2007]) and all O‐Mad2 variants were kept at 4°C during purification to prevent conversion to C‐Mad2. Prior to all NMR experiments, proteins were dialyzed into 20 mM HEPES, pH 7.0, 100 mM NaCl, 1 mM TCEP. ^13C/^15N‐labeled samples were used for backbone assignment, and all other experimental data were acquired on ^15N‐labeled samples. Proteins were kept on ice before NMR experiments to ensure all O‐Mad2 remained in the open state. For “bound” C‐Mad2, MIM peptides were added in 1:2 molar excess to ensure complete conversion.
All peptides were synthesized by Cambridge Research Biochemicals, UK. Peptides were dialyzed into 20 mM HEPES, pH 7.0, 100 mM NaCl, and 1 mM TCEP for NMR experiments. The sequences for the peptides used in this study are: Cdc20^MIM‐111‐138 ([…]), Cdc20^MIM‐123‐137 (FDVEEAKILRLSGKP), Cdc20^MIM‐123‐152 ([…]), Cdc20^MIM‐138‐152 (QNAPEGYQNRLKVLY), Mad1^MIM‐529‐550 ([…]), and MBP1^MIM (SWYSYPPPQRAV). […]

O‐Mad2 = conditions: NMR; ref Luo et al., [2004]; cited from earlier work
Method: To understand whether Mad2 conversion times are modulated by different C‐Mad2 ligands, we used time‐resolved NMR to determine the conversion time of 100 μM O‐Mad2^R133A at 25°C. The indole NH resonances of Trp75 and Trp167 were used as reporters (Figure 2b). […] In contrast, conversion took ~24 h in the absence of Cdc20^MIM‐111‐138 peptide (Fischer et al., [2022]) (Figures 2c and ...

[2] = experimentally determined; ref Zhao et al., [2016]; cited from earlier work
Mad2^R133A = molecular target: T2, Mad2^R133A (human, UniProt Q13257 1-205, R133A); test: time-resolved NMR (series of 2D 1H,15N HSQC spectra); 100 μM 15N Mad2 variant, MIM peptide at two-fold molar excess, 25°C, 20 mM HEPES pH 7.0, 100 mM NaCl, 1 mM TCEP, 5% D2O; Trp75 and Trp167 indole NH resonances as reporters of the ligand-bound closed state; 12 min per spectrum, up to 24 h; conditions: both partners purified
T2 construct: Mad2, human, full-length, R133A; Tag is followed by a TEV site; 15N-labelled for NMR; Starts in the open state; also called O-Mad2^R133A; C-Mad2^R133A; source: E. coli BL21 Star (DE3) with pRARE, purified

human wild-type Mad2 = molecular target: T3, human wild-type Mad2 (human, UniProt Q13257 1-205); test: SEC; excess of Mad1^MIM peptide added to O-Mad2^WT, complex purified by size-exclusion chromatography; conditions: both partners purified
T3 construct: Mad2, human, wild type; limits follow from Mad2^Δβ7/β8 (residues 1-165), made from this construct by deleting residues 166-205; Tag is followed by a TEV site; 15N-labelled for NMR; Expressed and kept cold as the open state (O-Mad2); Construct described in Fischer et al. 2022; also called Mad2^WT; O-Mad2^WT; source: E. coli BL21 Star (DE3) with pRARE, purified

Mad2^LL/R133A = molecular target: T4, Mad2^LL/R133A (human, UniProt Q13257 1-205, residues 109–117 (TAKDDSAPR) with GSG | R133A); test: time-resolved NMR (series of 1H,15N SOFAST-HMQC spectra, residue conversion rates); 200 μM Mad2 variant, 950 MHz, 25°C, 500 spectra of 5 min over 42 h; disappearance of O-Mad2 and appearance of C-Mad2:Cdc20^MIM backbone resonances; conditions: both partners purified
T4 construct: Mad2, human; Mad2^LL construct (residues 109-117 replaced by GSG) with Ala for Arg133; numbers count on wild-type Mad2; Tag is followed by a TEV site; also called O-Mad2^LL/R133A; source: E. coli BL21 Star (DE3) with pRARE, purified

Mad2^L13A/R133A = molecular target: T5, Mad2^L13A/R133A (human, UniProt Q13257 1-205, L13A | R133A); test: time-resolved NMR (series of 2D 1H,15N HSQC spectra); 100 μM 15N Mad2 variant, MIM peptide at two-fold molar excess, 25°C, 20 mM HEPES pH 7.0, 100 mM NaCl, 1 mM TCEP, 5% D2O; Trp75 and Trp167 indole NH resonances as reporters of the ligand-bound closed state; 12 min per spectrum, up to 24 h; conditions: both partners purified
T5 construct: Mad2, human, full-length, L13A and R133A; made from the Mad2^R133A mutant; Adopts the closed state without ligand; Tag is followed by a TEV site; also called “empty” C-Mad2; C-Mad2^L13A/R133A; source: E. coli BL21 Star (DE3) with pRARE, purified

Mad2^LL = molecular target: T6, Mad2^LL (human, UniProt Q13257 1-205, residues 109–117 (TAKDDSAPR) with GSG); test: as above; conditions: both partners purified
T6 construct: Mad2, human; wild-type construct with residues 109-117 of the β5-αC loop replaced by GSG; Tag is followed by a TEV site; also called loop-less Mad2 mutant; O-Mad2^LL; source: E. coli BL21 Star (DE3) with pRARE, purified
T6 sequence (Q13257 other isoform, or with tags, fused parts or gaps with the stated changes): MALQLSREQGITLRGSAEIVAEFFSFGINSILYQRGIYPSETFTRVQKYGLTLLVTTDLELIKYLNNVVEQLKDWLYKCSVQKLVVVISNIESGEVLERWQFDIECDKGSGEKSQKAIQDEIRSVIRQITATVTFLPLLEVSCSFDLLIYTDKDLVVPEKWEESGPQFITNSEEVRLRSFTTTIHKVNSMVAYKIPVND

T2 sequence (Q13257 whole entry R133A): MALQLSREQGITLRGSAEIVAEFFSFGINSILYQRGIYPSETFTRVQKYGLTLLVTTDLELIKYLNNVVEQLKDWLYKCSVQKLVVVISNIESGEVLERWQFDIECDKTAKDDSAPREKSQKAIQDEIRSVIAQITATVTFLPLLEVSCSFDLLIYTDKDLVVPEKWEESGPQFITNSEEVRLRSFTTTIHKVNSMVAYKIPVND
T1 sequence (Q13257 whole entry R133A): as above
T4 sequence (Q13257 other isoform, or with tags, fused parts or gaps with the stated changes): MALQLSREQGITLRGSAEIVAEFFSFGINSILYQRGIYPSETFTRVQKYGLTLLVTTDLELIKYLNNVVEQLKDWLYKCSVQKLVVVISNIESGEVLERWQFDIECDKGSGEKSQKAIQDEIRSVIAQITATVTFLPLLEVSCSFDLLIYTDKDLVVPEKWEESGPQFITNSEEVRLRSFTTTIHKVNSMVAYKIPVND
T5 sequence (Q13257 whole entry L13A/R133A): as the sequence (Q13257 whole entry R133A) above, with L13A counted along it
T3 sequence (Q13257 whole entry, the tested form may be a part): as the sequence (Q13257 whole entry R133A) above, with A133R counted along it

Molecule: O‐Mad2^R133A: dimerization‐deficient mutant Mad2^R133A in its open state
spontaneous conversion time to "empty" C-Mad2 ([1]; 100 μM, 25°C, absence of Cdc20^MIM-111-138 peptide, ref Fischer et al., [2022]): ~ 24 h

Molecule: Mad1 residues 540–551: Mad1 residues 540–551, earlier NMR study (Luo et al., [2004]) (TKVLHMSLNPTS; UniProt Q9Y6D9 540-551, looked up, fragment)
effect on O-Mad2 to C-Mad2 conversion, in words (O‐Mad2): facilitate this conversion

Molecule: O‐Mad2: Mad2 in the open inactive state
melting temperature [2]: 69 °C
t1/2 of intrinsic O-Mad2 to C-Mad2 conversion, in words ([1]; in solution, ref Faesen et al., [2017], Lad et al., [2009], Luo et al., [2004], Simonetta et al.): multiple hours

Molecule: FDVEEAKILRLSGKP [Cdc20^MIM‐123‐137, Cdc20^MIM spanning residues 123–137]
Mad2 conversion rate/efficiency, in words (O‐Mad2^R133A; time-resolved NMR, compared with other Cdc20^MIM peptides): triggered Mad2 conversion at a similar rate as Cdc20^MIM‐111‐138

B2: Cdc20^MIM-123-137 (peptide)
peptide: FDVEEAKILRLSGKP
notes: source: synthetic peptide (Cambridge Research Biochemicals)
binding result (Mad2^R133A): binds

B4: Cdc20^MIM-123-152 (peptide)
peptide: FDVEEAKILRLSGKPQNAPEGYQNRLKVLY
notes: also called MIM peptide; source: synthetic peptide (Cambridge Research Biochemicals)
binding result (Mad2^R133A): binds
binding result (Mad2^LL/R133A): binds

Now from value to molecule, other results behind:

time to complete Mad2 conversion (O‐Mad2^R133A; two-fold molar excess peptide, 20 mM HEPES pH 7.0, 100 mM NaCl, 1 mM TCEP, 5% D2O, Trp75/Trp167 indole NH reporters, 12 min per spectrum): ≤ 60 min
Molecule: SWYSYPPPQRAV [MBP1^MIM]
interaction with Mad2^∆β7/β8, in words (Mad2^∆β7/β8): weak interaction
C-Mad2 affinity, in words (C‐Mad2): enhanced C‐Mad2 affinity

binding result (Mad2^R133A): binds
B1: MBP1^MIM (peptide)
peptide: SWYSYPPPQRAV
notes: as for B2

binding result (Mad2^R133A): binds
binding result (human wild-type Mad2): binds
B3: Mad1^MIM-529-550 (peptide)
peptide: RALQGDYDQSRTKVLHMSLNPT
notes: as for B2

binding result (Mad2^L13A/R133A): binds
binding result (Mad2^LL): binds
B5: Cdc20^MIM-111-138 (peptide)
peptide: EHQKAWALNLNGFDVEEAKILRLSGKPQ
notes: as for B2

— paper PMC11947619, “Molecular mechanism of Mad2 conformational conversion promoted by the Mad2‐interaction motif of Cdc20” (Protein Science : A Publication of the Protein Society, 2025)
